The target of data set [1] is BG505 NFL.664 (native flexibly linked, cleavage-independent soluble HIV Env trimer) (HIV-1 isolate BG505 (clade A)). The experiment in a line: crystal structure.
Data set [2] has the same target. The experiment in a line: cryo-EM structure.
The next data set in a line: DSC. Conditions: glycan changed form; control: BG505 NFL.664 from HEK 293F, natural glycoforms.
The target of the next data set is BG505 SOSIP.664. The experiment in a line: BLI. (In general: BLI is a label-free optical method that tracks binding on a fibre tip over time.)

These results are taken from article PMC5955915.

The term stoichiometry N denotes the number of molecules, sites or subunits per partner or assembly. With “BG505 NFL.664 (native flexibly linked, cleavage-independent soluble HIV Env trimer)”, the stoichiometry N in data set [1] and in data set [2] was 3 each time.
Turning to “BG505 NFL.664 Env trimer: kifunensine and swainsonine (oligomannose only)”, the “stability_or_folding, Tm” value in “DSC” is listed as “no change, 66.6 vs 65.8”.
The term Kd denotes a measure of binding affinity in units of concentration. Read a low Kd as a tighter complex. For orientation: koff means the first-order rate constant of dissociation. In the data set with BG505 SOSIP.664, PGT121 Fab showed a Kd of 0.0585 µM and a koff of 0.00033 s⁻¹.
For PGT124 Fab, in the data set with BG505 SOSIP.664, the Kd turned out to be 0.0383 µM and the koff was 0.00059 s⁻¹.
